Key:
[1] = test system: MCF7 cells; assay: cell viability assay ([…]-GLO), MCF7; type: cell-based, human; parameters: key to Effect of IR3, 6D2, 9F2, and 10H5: +: growth inhibition; −: no or weak effect; details: MCF7, Breast Adenocarcinoma
Method: (§1) The different cell lines were cultured in their respective culture media at 37° C. in a humidified atmosphere of 5% CO2. Subsequently, cells were detached from tissue-culture flasks using the cell-dissociation solution, TRIPLE SELECT™ solution (InVitrogen, Carlsbad, Calif., USA), and centrifuged at 1000 rpm for five minutes. Detached cells were washed once with PBS, counted, and seeded in 96-well plates (Corning, N.Y., USA) at 2000 cells per well in 100 μL of culture media. After an overnight incubation at 37° C. in a humidified atmosphere of 5% CO2, the cell-culture medium was replaced with 50 μL of starvation medium consisting of serum-free RPMI 1640™ medium without phenol red. The cells were then starved for five hours in the incubator before addition of 25 μL of each anti-IGF-1R monoclonal antibody at various dilutions in serum-free RPMI 1640™ phenol red-free media. Later, 25 μL of phenol red-free RPMI 1640™ media supplemented with 4% of fetal bovine serum (FBS) (Sigma) with or without 4 ng/ml of human recombinant IGF-I were added on top of the 50 μL of antibody. The cells were then placed at 37° C. with 5% CO2 for 5 to 6 days. At the end of the assay, cell viability was measured using the […]-GLO® kit according to the manufacturer's instructions (Promega, Madison, Wis., USA).
For the cell viability assay, MCF7 cells were seeded onto 96-well plates at 2000 cells/well and incubated overnight at 37° C. in a humidified atmosphere of 5% CO2/95% air in RPMI 1640™ medium supplemented with 10% FBS (Sigma, St. Louis, Mo.) and 1% GLUTAMAX™ reagent (Promega, Madison, Wis.). The next day cells were starved in serum-free RPMI 1640™ medium (phenol red-free) for five hours followed by addition of serially diluted human chimeric versions of 9F2, 2B4, and 10H5, as well as h10H5.vX, for one hour. Subsequently, phenol red-free PRMI 1640™ medium supplemented with FBS or IGF-I was added to reach a final concentration of 1% FBS and 1 ng/mL IGF-I. Cells were then incubated with continuous IGF-1R antibody exposure. After five days, the cell viability was then determined using a […]-GLO™ kit (Promega, Madison, Wis.) according to the manufacturer's instructions.

[2] = test system: HELA; assay: cell viability assay, HELA; type: cell-based, human; parameters: key: +: growth inhibition; −: no or weak effect; details: Cervix Adenocarcinoma
Method: as §1

B1: 9F2: mouse monoclonal anti-IGF-1R antibody from hybridoma 9F2.6.2, ATCC PTA-7018 (antibody, V domains shown)
VH: QIQLVQSGPELKKPGETVKISCKASGYTLANYGMNWVKQAPGKGFKWMGWINTNTGKPTYSDEFKGRFVFSLETSASTAYLLINNLSNEDTATYFCARSIYYYGSRYFNVWGAGTT
VL: DIQMTQSTSSLSASLGDRVTISCRASQDINNYLTWYQQKPDGTVKLLIYYTSRLHSGVPSRFSGSGSGTDYSLTITNLEQEDFATYFCQQGNTLPWTFGEGTKVEIKR
Effect of IR3, 6D2, 9F2, and 10H5 [1]: + | Effect of IR3, 6D2, 9F2, and 10H5 [2]: +

B2: 10H5: mouse monoclonal anti-IGF-1R antibody from hybridoma 10H5.3.4, ATCC PTA-7007 (antibody, V domains shown)
VH: QVQLQQPGAELVKPGASVTLSCKASGYTFTRFWIHWVKQRPGQGLEWIGEINPSNGRTNYNENFKNKATLTVDTSSSTAYMQLSSLTSEVSVVYYCARGGRLDQWGQGTT
VL: DIVMTQSQKFMSTSLGDRVSVTCKASQNVGSNVAWYQQKPGQSPEALIYSASYRYSGVPDRFTGSGSGTDFTLTISNVQSEDLAEYFCHQYNNYPYTFGGGTKVEIKR
Effect of IR3, 6D2, 9F2, and 10H5 [1]: + | Effect of IR3, 6D2, 9F2, and 10H5 [2]: +
